Drawing on article PMC5693285, this text covers binding for one sequence.

Where only a bound is given, the exact number is not on record here.

The subject of data set [1] is His-VtrAN-ZIPm (Vibrio parahaemolyticus RIMD2210633?; ZIP from Saccharomyces cerevisiae GCN4). In words: EMSA. The conditions noted are these: EMSA: 10 mM Tris-HCl pH 7.5, 100 mM KCl, 1 mM DTT, 1 mM EDTA, 0.2% NP-40, 10% glycerol, 100 ng/ml BSA; 4 nM probe, protein 0-400 nM; 30 min room temperature; 6%.
Data set [2] has as its system His-VtrAN (Vibrio parahaemolyticus RIMD2210633?). The experiment in a line: EMSA. The conditions noted are these: EMSA: 10 mM Tris-HCl pH 7.5, 100 mM KCl, 1 mM DTT, 1 mM EDTA, 0.2% NP-40, 10% glycerol, 100 ng/ml BSA; 4 nM probe, protein 0-400 nM; 30 min room temperature; 6%.

As for “AGGGGCTATGCCCCTTTTATTTTTAATTCTCAAAGTTATCTTTTGAAGGTAATGGGGTATTTTTGAATAACTACATTGGGGTGTGATTGTCCTCGTTGTTTTTTAGTTTTTTTTAGGTTTTTTTTGCTGCTTTTCACGGTTTTATCATCACTTTATTCCGTGATTTAGCAAAATTCTTTTTAGGAGTTTGAAGTGGTCGTCTTCATTACCACGGCTTTAAGAACAGAGACGTTCTCTTTTAATCACAATAAATAACGAAGAAAAACTGTGAAAAGGGCTCAGCG (double strand) [vtrB upstream region 284 bp]”, the binding in data set [1] and in data set [2] was greater than 400 nM each time.
